The chains are these.
B1: Intersectin-1, residues 909 to 971; numbered along this chain, Q15811 (parent)
chain: QGEKVEGLQAQALYPWRAKKDNHLNFNKNDVITVLEQQDMWWFGEVQGQKGWFPKSYVKLISG

± gives the uncertainty stated by the source.

The variants in the data set derive from B1. Nature of the data set: abundance fitness (aPCA) (normalised: wild type 0, dead -1); higher = more abundant; growth selection in yeast, the domain comes from the species named. The settings on record: Homo sapiens.
Regarding QGEKVEGLQAQALYPWRAKKDNHLNFNKNDVITVLEQQDMWWFGEVQGQKGWFPGSYVKLISG, the abundance fitness was -0.165 ± 0.24.
As to QGEKVEGLQAQALYPWRAKKDNHLNFNKNDVITVLEQQDMWWFGEVQGQKGWFPCSYVKLISG, the abundance fitness was -0.16 ± 0.21.
Then QGEKVEGLQAQALYPWRAKKDNHLNFNKNDVITVLEQQDMWWFGEVQGQKGWFPRSYVKLISG, with 0.018 ± 0.3.
As to QGEKVEGLQAQALYPWRAKKDNHLNFNKNDVITVLEQQDMWWFGEVQGQKGWFPLSYVKLISG, the abundance fitness was -0.24 ± 0.36.
For the variant QGEKVEGLQAQALYPWRAKKDNHLNFNKNDVITVLEQQDMWWFGEVQGQKGWFPQSYVKLISG, the abundance fitness is -0.005 ± 0.34.
The same measure for QGEKVEGLQAQALYPWRAKKDNHLNFNKNDVITVLEQQDMWWFGEVQGQKGWFPNSYVKLISG: -0.054 ± 0.26.
The same measure for QGEKVEGLQAQALYPWRAKKDNHLNFNKNDVITVLEQQDMWWFGEVQGQKGWFPESYVKLISG: -0.396 ± 0.34; for QGEKVEGLQAQALYPWRAKKDNHLNFNKNDVITVLEQQDMWWFGEVQGQKGWFPKSYAKLISG: -0.189 ± 0.088; for QGEKVEGLQAQALYPWRAKKDNHLNFNKNDVITVLEQQDMWWFGEVQGQKGWFPKSYDKLISG: -0.793 ± 0.47.
Then QGEKVEGLQAQALYPWRAKKDNHLNFNKNDVITVLEQQDMWWFGEVQGQKGWFPKSYRKLISG, with -1.04 ± 0.34; and QGEKVEGLQAQALYPWRAKKDNHLNFNKNDVITVLEQQDMWWFGEVQGQKGWFPKSYIKLISG, with -0.451 ± 0.17; and QGEKVEGLQAQALYPWRAKKDNHLNFNKNDVITVLEQQDMWWFGEVQGQKGWFPKSYFKLISG, with -0.821 ± 0.37.
QGEKVEGLQAQALYPWRAKKDNHLNFNKNDVITVLEQQDMWWFGEVQGQKGWFPKSYEKLISG: the abundance fitness is -0.703 ± 0.17.
Consider QGEKVEGLQAQALYPWRAKKDNHLNFNKNDVITVLEQQDMWWFGEVQGQKGWFPKSYCKLISG, for which the abundance fitness is -0.169 ± 0.14.
As for QGEKVEGLQAQALYPWRAKKDNHLNFNKNDVITVLEQQDMWWFGEVQGQKGWFPKSYGKLISG, the abundance fitness is -0.881 ± 0.15.
With QGEKVEGLQAQALYPWRAKKDNHLNFNKNDVITVLEQQDMWWFGEVQGQKGWFPKSYPKLISG, the abundance fitness is -0.379 ± 0.2.
As for QGEKVEGLQAQALYPWRAKKDNHLNFNKNDVITVLEQQDMWWFGEVQGQKGWFPKSYLKLISG, the abundance fitness was -0.812 ± 0.16.
Then QGEKVEGLQAQALYPWRAKKDNHLNFNKNDVITVLEQQDMWWFGEVQGQKGWFPKIYVKLISG, with -0.491 ± 0.26; and QGEKVEGLQAQALYPWRAKKDNHLNFNKNDVITVLEQQDMWWFGEVQGQKGWFPKVYVKLISG, with -0.099 ± 0.081.
In the case of QGEKVEGLQAQALYPWRAKKDNHLNFNKNDVITVLEQQDMWWFGEVQGQKGWFPKEYVKLISG, the abundance fitness is -0.178 ± 0.18.
The same measure for QGEKVEGLQAQALYPWRAKKDNHLNFNKNDVITVLEQQDMWWFGEVQGQKGWFPKPYVKLISG: -0.298 ± 0.22; for QGEKVEGLQAQALYPWRAKKDNHLNFNKNDVITVLEQQDMWWFGEVQGQKGWFPKYYVKLISG: -0.225 ± 0.28; for QGEKVEGLQAQALYPWRAKKDNHLNFNKNDVITVLEQQDMWWFGEVQGQKGWFPKMYVKLISG: -0.238 ± 0.12.
The same measure for QGEKVEGLQAQALYPWRAKKDNHLNFNKNDVITVLEQQDMWWFGEVQGQKGWFPKFYVKLISG: -0.239 ± 0.19; for QGEKVEGLQAQALYPWRAKKDNHLNFNKNDVITVLEQQDMWWFGEVQGQKGWFPKQYVKLISG: -0.099 ± 0.2.
With QGEKVEGLQAQALYPWRAKKDNHLNFNKNDVITVLEQQDMWWFGEVQGQKGWFPKGYVKLISG, the abundance fitness was -0.147 ± 0.068.
The same measure for QGEKVEGLQAQALYPWRAKKDNHLNFNKNDVITVLEQQDMWWFGEVQGQKGWFPKAYVKLISG: -0.137 ± 0.13; for QGEKVEGLQAQALYPWRAKKDNHLNFNKNDVITVLEQQDMWWFGEVQGQKGWFPKDYVKLISG: -0.1 ± 0.18.
Consider QGEKVEGLQAQALYPWRAKKDNHLNFNKNDVITVLEQQDMWWFGEVQGQKGWFPKKYVKLISG, for which the abundance fitness was -0.251 ± 0.2.
Then QGEKVEGLQAQALYPWRAKKDNHLNFNKNDVITVLEQQDMWWFGEVQGQKGWFPKLYVKLISG, with -0.102 ± 0.092; and QGEKVEGLQAQALYPWRAKKDNHLNFNKNDVITVLEQQDMWWFGEVQGQKGWFPKCYVKLISG, with -0.204 ± 0.28.
As to QGEKVEGLQAQALYPWRAKKDNHLNFNKNDVITVLEQQDMWWFGEVQGQKGWFPKTYVKLISG, the abundance fitness is -0.016 ± 0.16.
Then QGEKVEGLQAQALYPWRAKKDNHLNFNKNDVITVLEQQDMWWFGEVQGQKGWFPKWYVKLISG, with -0.393 ± 0.17.
QGEKVEGLQAQALYPWRAKKDNHLNFNKNDVITVLEQQDMWWFGEVQGQKGWFPKSLVKLISG: the abundance fitness was 0.013 ± 0.13.
The same measure for QGEKVEGLQAQALYPWRAKKDNHLNFNKNDVITVLEQQDMWWFGEVQGQKGWFPKSAVKLISG: 0.12 ± 0.11; for QGEKVEGLQAQALYPWRAKKDNHLNFNKNDVITVLEQQDMWWFGEVQGQKGWFPKSQVKLISG: -0.14 ± 0.12.
In the case of QGEKVEGLQAQALYPWRAKKDNHLNFNKNDVITVLEQQDMWWFGEVQGQKGWFPKSEVKLISG, the abundance fitness is -0.243 ± 0.22.
Then QGEKVEGLQAQALYPWRAKKDNHLNFNKNDVITVLEQQDMWWFGEVQGQKGWFPKSGVKLISG, with -0.572 ± 0.13; and QGEKVEGLQAQALYPWRAKKDNHLNFNKNDVITVLEQQDMWWFGEVQGQKGWFPKSFVKLISG, with 0.279 ± 0.34.
QGEKVEGLQAQALYPWRAKKDNHLNFNKNDVITVLEQQDMWWFGEVQGQKGWFPKSMVKLISG: the abundance fitness was determined as 0.008 ± 0.13.
The same measure for QGEKVEGLQAQALYPWRAKKDNHLNFNKNDVITVLEQQDMWWFGEVQGQKGWFPKSKVKLISG: 0.081 ± 0.23; for QGEKVEGLQAQALYPWRAKKDNHLNFNKNDVITVLEQQDMWWFGEVQGQKGWFPKSDVKLISG: -0.399 ± 0.24.

Source of the values: the Human Domainome abundance scans (Beltran et al. 2025).
